From publication PMC9834170 (Cell Reports Medicine, 2023)

Legend:
[1] = biological target: T1, SARS-CoV-2 prototype RBD with human IgG Fc-tag (SARS-CoV-2, UniProt P0DTC2); assay: cell-based or functional assay
[2] = biological target: T1, SARS-CoV-2 prototype RBD with human IgG …; assay: SPR

Binder | IC50 of neutralization of live SARS-CoV-2 in Vero cells (blocks RBD with hACE2) [1] [nM] | Kd [2] [nM] | IC50 of neutralization of live SARS-CoV-2 in Vero cells (blocks S with ACE2) [1] [nM]
nanobody R14 (VHH) VHH: QVQLQESGGGLVQPGGSLRLSCAVSGFTLDYYAIGWFRQAPGKEREGVSCISSSDGSTSYADSVKGRFTISRDNAKNTVYLQMNSLKPEDTALYYCAATPATYYSGRYYYQCPAGGMDYWGQGTQVTVSS | 1.3 |  | 
nanobody S43 (VHH) VHH: QVQLQESGGGLVQPGGSLRLTCAPSGFTLDYYAIGWFRQAPGKEREGVSCISSNNSTYYADSVKGRFTISRDNAKNTVYLQMNSLKPEDTAVYYCAAEPDYSGVYYYTCGWTDFGSWGQGTQVTVSS |  | 0.18 | 40.7
